Experimental data from publication PMC6018924, “Brassinosteroids regulate pavement cell growth by mediating BIN2-induced microtubule stabilization” (Journal of Experimental Botany, 2018).

Tests used:
Test in all cases: pull-down; GST fusion bound to GST resin in 1× PBS pH 7.4, 0.1% Triton X-100, 2 h at 4 °C; incubated with purified tubulin-His 2 h at 4 °C; western blot with anti-His antibody
Details in all cases: both partners purified
[1] = target: T1, TUB8–His (Arabidopsis, UniProt P29516 1-449)
T1 construct: β-tubulin TUB8 of Arabidopsis, gene cloned into pET28a; also called tubulin–His; source: E. coli (Rosetta strain), purified using Ni-NTA agarose

[2] = target: T2, TUA1–His (Arabidopsis, UniProt P11139 1-450)
T2 construct: α-tubulin TUA1 of Arabidopsis, gene cloned into pET28a; also called tubulin–His; source: E. coli (Rosetta strain), purified using Ni-NTA agarose

[3] = target: T3, TUB3–His (Arabidopsis, UniProt Q9ASR0 1-450)
T3 construct: β-tubulin TUB3 of Arabidopsis, gene cloned into pET28a; also called tubulin–His; source: E. coli (Rosetta strain), purified using Ni-NTA agarose

[4] = target: T4, TUA5–His (Arabidopsis, UniProt B9DHQ0 1-450)
T4 construct: α-tubulin TUA5 of Arabidopsis, gene cloned into pET28a; also called tubulin–His; source: E. coli (Rosetta strain), purified using Ni-NTA agarose

[5] = target: T5, TUA3–His (Arabidopsis, UniProt Q56WH1 1-450)
T5 construct: α-tubulin TUA3 of Arabidopsis, gene cloned into pET28a; also called tubulin–His; source: E. coli (Rosetta strain), purified using Ni-NTA agarose

[6] = target: T6, TUB7–His (Arabidopsis, UniProt P29515 1-449)
T6 construct: β-tubulin TUB7 of Arabidopsis, gene cloned into pET28a; also called tubulin–His; source: E. coli (Rosetta strain), purified using Ni-NTA agarose

[7] = target: T7, TUB4–His (Arabidopsis, UniProt P24636 1-444)
T7 construct: β-tubulin TUB4 of Arabidopsis, gene cloned into pET28a; also called tubulin–His; source: E. coli (Rosetta strain), purified using Ni-NTA agarose

[8] = target: T8, TUB6–His (Arabidopsis, UniProt P29514 1-449)
T8 construct: β-tubulin TUB6 of Arabidopsis, gene cloned into pET28a; also called tubulin–His; source: E. coli (Rosetta strain), purified using Ni-NTA agarose
T8 sequence (P29514 whole entry): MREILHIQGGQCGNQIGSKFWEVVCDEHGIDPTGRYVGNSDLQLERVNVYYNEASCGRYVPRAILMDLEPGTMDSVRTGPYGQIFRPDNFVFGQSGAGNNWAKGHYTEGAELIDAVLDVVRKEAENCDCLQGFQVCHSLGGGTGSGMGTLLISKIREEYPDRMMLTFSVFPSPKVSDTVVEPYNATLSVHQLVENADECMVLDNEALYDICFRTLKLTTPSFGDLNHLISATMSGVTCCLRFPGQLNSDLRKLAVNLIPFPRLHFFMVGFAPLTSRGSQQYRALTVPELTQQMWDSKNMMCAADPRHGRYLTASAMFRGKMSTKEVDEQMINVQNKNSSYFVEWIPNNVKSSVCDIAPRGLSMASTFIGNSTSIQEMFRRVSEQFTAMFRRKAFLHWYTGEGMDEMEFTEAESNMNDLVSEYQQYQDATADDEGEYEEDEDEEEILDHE

T6 sequence (P29515 whole entry): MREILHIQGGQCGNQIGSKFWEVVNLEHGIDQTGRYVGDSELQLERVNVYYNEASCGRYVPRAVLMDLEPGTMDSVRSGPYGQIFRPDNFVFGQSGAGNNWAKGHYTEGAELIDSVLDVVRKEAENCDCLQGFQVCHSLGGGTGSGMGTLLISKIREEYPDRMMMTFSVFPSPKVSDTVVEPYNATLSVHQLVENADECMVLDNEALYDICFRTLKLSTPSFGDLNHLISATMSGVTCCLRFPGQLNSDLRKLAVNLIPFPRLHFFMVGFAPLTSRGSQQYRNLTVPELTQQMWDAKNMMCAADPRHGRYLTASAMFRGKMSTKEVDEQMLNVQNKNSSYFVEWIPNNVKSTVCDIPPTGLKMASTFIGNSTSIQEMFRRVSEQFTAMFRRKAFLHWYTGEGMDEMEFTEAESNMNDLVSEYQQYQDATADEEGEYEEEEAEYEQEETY
T3 sequence (Q9ASR0 whole entry): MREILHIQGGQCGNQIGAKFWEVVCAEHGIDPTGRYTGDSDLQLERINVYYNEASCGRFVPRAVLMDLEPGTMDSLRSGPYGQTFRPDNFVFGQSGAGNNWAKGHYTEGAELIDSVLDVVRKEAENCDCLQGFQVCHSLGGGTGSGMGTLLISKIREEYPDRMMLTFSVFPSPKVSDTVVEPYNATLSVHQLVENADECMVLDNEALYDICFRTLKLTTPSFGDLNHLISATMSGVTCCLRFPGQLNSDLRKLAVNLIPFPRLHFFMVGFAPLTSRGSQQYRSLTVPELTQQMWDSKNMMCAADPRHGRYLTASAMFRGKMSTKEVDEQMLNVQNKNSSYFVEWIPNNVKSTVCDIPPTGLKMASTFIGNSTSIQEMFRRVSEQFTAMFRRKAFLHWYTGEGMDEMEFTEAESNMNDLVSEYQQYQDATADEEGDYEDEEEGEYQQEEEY
T2 sequence (P11139 whole entry): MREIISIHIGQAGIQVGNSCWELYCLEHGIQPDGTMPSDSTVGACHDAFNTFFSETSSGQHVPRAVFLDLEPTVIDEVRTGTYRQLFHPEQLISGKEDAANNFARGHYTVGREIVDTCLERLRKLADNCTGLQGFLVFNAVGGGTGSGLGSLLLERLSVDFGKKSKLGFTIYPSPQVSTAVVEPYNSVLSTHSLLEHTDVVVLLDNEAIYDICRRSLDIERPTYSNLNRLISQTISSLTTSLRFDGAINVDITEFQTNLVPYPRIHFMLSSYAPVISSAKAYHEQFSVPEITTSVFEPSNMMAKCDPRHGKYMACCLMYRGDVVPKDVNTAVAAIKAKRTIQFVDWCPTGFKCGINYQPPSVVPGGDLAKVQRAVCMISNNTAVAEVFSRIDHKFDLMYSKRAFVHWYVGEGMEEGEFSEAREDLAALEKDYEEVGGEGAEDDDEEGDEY
T7 sequence (P24636 whole entry): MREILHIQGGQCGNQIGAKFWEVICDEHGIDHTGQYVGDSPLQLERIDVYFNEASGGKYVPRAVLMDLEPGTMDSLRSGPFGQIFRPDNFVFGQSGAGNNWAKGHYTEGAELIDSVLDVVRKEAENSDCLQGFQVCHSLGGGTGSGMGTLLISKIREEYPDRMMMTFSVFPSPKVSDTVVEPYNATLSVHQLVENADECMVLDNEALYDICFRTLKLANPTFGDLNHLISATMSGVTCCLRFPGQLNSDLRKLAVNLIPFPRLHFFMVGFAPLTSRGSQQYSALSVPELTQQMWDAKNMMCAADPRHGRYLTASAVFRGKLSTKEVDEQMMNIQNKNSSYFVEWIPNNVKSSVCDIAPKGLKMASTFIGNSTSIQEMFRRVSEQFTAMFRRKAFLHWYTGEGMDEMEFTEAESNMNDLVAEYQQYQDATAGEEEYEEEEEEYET
T1 sequence (P29516 whole entry): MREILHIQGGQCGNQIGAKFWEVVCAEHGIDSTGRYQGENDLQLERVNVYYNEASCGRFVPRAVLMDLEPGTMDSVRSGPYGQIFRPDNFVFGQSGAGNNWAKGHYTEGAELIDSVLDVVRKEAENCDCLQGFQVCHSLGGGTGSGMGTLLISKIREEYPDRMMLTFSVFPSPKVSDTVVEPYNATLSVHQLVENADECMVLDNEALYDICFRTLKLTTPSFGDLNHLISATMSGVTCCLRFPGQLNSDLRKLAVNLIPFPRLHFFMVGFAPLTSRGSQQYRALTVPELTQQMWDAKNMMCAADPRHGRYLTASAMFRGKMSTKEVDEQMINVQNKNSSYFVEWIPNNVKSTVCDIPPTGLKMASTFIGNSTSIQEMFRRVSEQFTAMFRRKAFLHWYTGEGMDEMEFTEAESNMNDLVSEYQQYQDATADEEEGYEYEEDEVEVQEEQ
T5 sequence (Q56WH1 whole entry): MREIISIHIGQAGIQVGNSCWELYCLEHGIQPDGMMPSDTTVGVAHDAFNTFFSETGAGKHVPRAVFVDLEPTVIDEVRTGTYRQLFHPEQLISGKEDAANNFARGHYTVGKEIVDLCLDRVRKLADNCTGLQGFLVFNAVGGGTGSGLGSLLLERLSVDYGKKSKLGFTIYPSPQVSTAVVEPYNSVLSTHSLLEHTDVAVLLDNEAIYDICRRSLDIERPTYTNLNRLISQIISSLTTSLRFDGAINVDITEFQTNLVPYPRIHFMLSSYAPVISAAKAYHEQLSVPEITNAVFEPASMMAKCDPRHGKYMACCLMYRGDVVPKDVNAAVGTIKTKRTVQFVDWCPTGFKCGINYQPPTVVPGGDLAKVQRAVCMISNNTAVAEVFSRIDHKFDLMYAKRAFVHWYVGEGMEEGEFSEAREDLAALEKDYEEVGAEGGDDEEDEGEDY
T4 sequence (B9DHQ0 whole entry): as the sequence (Q56WH1 whole entry) above

binding result [1]: binds
binding result [2]: binds
binding result [3]: binds
binding result [4]: binds
binding result [5]: binds
binding result [6]: binds
binding result [7]: binds
binding result [8]: binds
B1: GST–BIN2 (BRASSINOSTEROID …2) (enzyme, Arabidopsis, UniProt Q39011 1-380, looked up)
chain: MADDKEMPAAVVDGHDQVTGHIISTTIGGKNGEPKQTISYMAERVVGTGSFGIVFQAKCLETGETVAIKKVLQDRRYKNRELQLMRVMDHPNVVCLKHCFFSTTSKDELFLNLVMEYVPESLYRVLKHYSSANQRMPLVYVKLYMYQIFRGLAYIHNVAGVCHRDLKPQNLLVDPLTHQVKICDFGSAKQLVKGEANISYICSRFYRAPELIFGATEYTTSIDIWSAGCVLAELLLGQPLFPGENAVDQLVEIIKVLGTPTREEIRCMNPHYTDFRFPQIKAHPWHKIFHKRMPPEAIDFASRLLQYSPSLRCTALEACAHPFFDELREPNARLPNGRPFPPLFNFKQEVAGSSPELVNKLIPDHIKRQLGLSFLNQSGT
notes: BRASSINOSTEROID …2 (BIN2), GSK3-like kinase of Arabidopsis, 380 aa; also called BIN2–GST; source: E. coli (Rosetta strain), purified using glutathione resin
